Where two headings read alike, the source gives them in different places.
B1: full-length PLS2 (plastin 2), wild type (natural protein)
chain: MARGSVSDEEMMELREAFAKVDTDGNGYISFNELNDLFKAACLPLPGYRVREITENLMATGDLDQDGRISFDEFIKIFHGLKSTDVAKTFRKAINKKEGICAIGGTSEQSSVGTQHSYSEEEKYAFVNWINKALENDPDCRHVIPMNPNTNDLFNAVGDGIVLCKMINLSVPDTIDERTINKKKLTPFTIQENLNLALNSASAIGCHVVNIGAEDLKEGKPYLVLGLLWQVIKIGLFADIELSRNEALIALLREGESLEDLMKLSPEELLLRWANYHLENAGCNKIGNFSTDIKDSKAYYHLLEQVAPKGDEEGVPAVVIDMSGLREKDDIQRAECMLQQAERLGCRQFVTATDVVRGNPKLNLAFIANLFNRYPALHKPENQDIDWGALEGETREERTFRNWMNSLGVNPRVNHLYSDLSDALVIFQLYEKIKVPVDWNRVNKPPYPKLGGNMKKLENCNYAVELGKNQAKFSLVGIGGQDLNEGNRTLTLALIWQLMRRYTLNILEEIGGGQKVNDDIIVNWVNETLREAKKSSSISSFKDPKISTSLPVLDLIDAIQPGSINYDLLKTENLNDDEKLNNAKYAISMARKIGARVYALPEDLVEVNPKMVMTVFACLMGKGMKRV
B2: ABD1 of PLS2 (domain or fragment)
chain: EGICAIGGTSEQSSVGTQHSYSEEEKYAFVNWINKALENDPDCRHVIPMNPNTNDLFNAVGDGIVLCKMINLSVPDTIDERTINKKKLTPFTIQENLNLALNSASAIGCHVVNIGAEDLKEGKPYLVLGLLWQVIKIGLFADIELSRNEALIALLREGESLEDLMKLSPEELLLRWANYHLENAGCNKIGNFSTDIKDSKAYYHLLEQVAPKGDEEGVPAVVIDMSGLREKDDIQRAECMLQQAERLGCRQFVTATDVVRGNPKLNLAFIANLFNRYP
B3: ABD2 of PLS2, unlabeled (domain or fragment)
chain: DIDWGALEGETREERTFRNWMNSLGVNPRVNHLYSDLSDALVIFQLYEKIKVPVDWNRVNKPPYPKLGGNMKKLENCNYAVELGKNQAKFSLVGIGGQDLNEGNRTLTLALIWQLMRRYTLNILEEIGGGQKVNDDIIVNWVNETLREAKKSSSISSFKDPKISTSLPVLDLIDAIQPGSINYDLLKTENLNDDEKLNNAKYAISMARKIGARVYALPEDLVEVNPKMVMTVFACLMGKGMKRV
B4: fluorescein-labeled ABD2 of PLS2 (domain or fragment)
chain: B3 chain
modifications: fluorescein-5-maleimide (FM) label

Key:
[1] = molecular target: T1, F-actin (skeletal muscle actin) ( (rabbit or chicken skeletal …, UniProt P68135 1-377)); assay: co-sedimentation
[2] = molecular target: T1, F-actin (skeletal muscle actin); assay: fluorescence polarisation
RD-ABD1 of PLS2 [3] = molecular target: T2, RD-ABD1 of PLS2 (human, UniProt P13796 1-375); assay: fluorescence polarisation
T2 sequence: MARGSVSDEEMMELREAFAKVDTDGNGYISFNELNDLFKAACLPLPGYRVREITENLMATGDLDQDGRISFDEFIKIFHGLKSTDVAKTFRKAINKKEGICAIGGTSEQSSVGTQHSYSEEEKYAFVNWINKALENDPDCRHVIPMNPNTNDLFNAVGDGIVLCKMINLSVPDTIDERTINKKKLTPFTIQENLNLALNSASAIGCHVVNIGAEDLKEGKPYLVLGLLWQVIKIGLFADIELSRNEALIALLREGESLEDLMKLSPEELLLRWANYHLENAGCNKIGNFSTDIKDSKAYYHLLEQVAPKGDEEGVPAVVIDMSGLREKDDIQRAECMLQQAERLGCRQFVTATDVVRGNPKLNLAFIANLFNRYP

ABD1 of PLS2 = molecular target: B2; assay: fluorescence polarisation
RD-ABD1 of PLS2 [4] = molecular target: T2, RD-ABD1 of PLS2; assay: fluorescence polarisation; remark: listed apart in the source
[5] = molecular target: T1, F-actin (skeletal muscle actin); assay: fluorescence polarisation; remark: listed apart in the source

B1
Kd [1]: 5700 ± 1000 nM

B2
Kd [1]: 2600 ± 1000 nM

B3
Kd [2]: 3.6 ± 0.3 nM
Kd (RD-ABD1 of PLS2 [3]): 3 ± 0.9 nM
Kd (ABD1 of PLS2): 11.4 ± 0.7 nM
Kd (RD-ABD1 of PLS2 [4]): 2.9 ± 0.5 nM

B4
Kd [5]: 9.9 ± 3.7 nM

— doi:10.1101/2021.12.01.470822 (bioRxiv, 2021)
